Reference: the nanobody polyreactivity screen of Harvey et al. (2022)

Assay: yeast display, Sf9 membrane polyspecificity reagent, FACS + sequencing; frameworks hold sequencing errors
Summary of the method: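 Synthetic nanobody libraries on Saccharomyces cerevisiae BJ5465 were galactose-induced for 36–48 hours, stained 1 hour at 4 °C with 10% biotinylated, detergent-solubilized Sf9 membrane reagent and enriched on streptavidin microbeads. FACS then separated cells into low and high (top ~1%) gates by anti-HA (expression) and streptavidin (reagent binding) fluorescence. Genes were colony-PCR amplified, MiSeq 2 × 250 sequenced and CDR-length filtered. A clone's polyreactivity label is that of its gate of origin.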

Sequence	polyreactivity (PSR sort gate)
QVQLEESGGGLVQAGGSLRISCAAYGRTLRQYALGWYRQAPGKERELVAAISRGGSTTYADSVKGRFTISRDNAKNTVYLQMNSLKPEDTAVYYCAAVSSKGNRHEYDYWGQGTQVTVSS	low polyreactivity
QVQLVESGGGLVQAGGSLRISCAASGGIFQRYDMGWYRKATGKERELVAAITRSGGSTYYADSVKGRFTISRDNAKNTVYLQMNSLKPEDTAVYYCAARTYGCYEYWGQGTQVTVSS	high polyreactivity
QVQLVESGGGLVQAGGSLRLSCAASGSIFWGNTMGWYRQAPGKERELVAAISRSGSSTYYADSVKGRFTISRDNAKNTVYLQMNSLKPEDTAVYYCAASVPYYTGYYYNAYEYWGQGTQVTVSS	high polyreactivity
QVQLVESGGGLVQAGGSLRLSCAASGSTSSVMLWMGWYRQAPGKEREFVAGISWIDATTYYADSVKGRFTISRDNAKNTVYLQMNSLKPEDTAVYYCAADVRWLWYWYGRYDYWGQGTQVTVSS	high polyreactivity
QVQLVESGGGLVQAGGSLRLSCAASGITFKVYAMGWYRQAPRKEREFVAAITYSGGRTYYADSVKGRFTISRDNAKNTVYLQMNSLQPEDTAVYYCAKEYGIYTDTPYYYWGQGTQVTVSS	low polyreactivity
QVKLVESGGGLVQAGGSLRLSCAASGNIFSIYAMGWYRQAPGKERELVAAITARGGRTYYADSVKGRFTFSRDNAKNTVYLQMNSLKPEDTAVYYCNAVRSTKGYWVPFGGDYWGQGTQGTVSS	low polyreactivity
QVQLVESGGGLVQAGGSLRLSCAASGFTFQGNVMGWYRQAPGKERELVAASTGGGGDTYSADSVKGRFTISRDNAKNTVYLQMNSLKPEDTAVYYCAAEVAPEWYWPWFFDYADGYWGQGTQVTLSS	high polyreactivity
QVQHVESGGGLVQAGGSLRLSCAASGFMFYSYAMGWYRQPPGKEREFVAAITEDGDSSYYADSVKGRFTISRDNAKKTVYLQMNSLKPEDTAVYYCNTDLTFNGTSGDYDYWGQGTQVTVSS	low polyreactivity
QVHLVESGGGLVQAGGSLRLSCAASGSIFLWYTMGWYRQAPGKERELVAAISRTGGSTYYADSVKGRFTISRDNAKNTVYLQMNSLKPEDTAVYYCAASLYSITRARYDYWGQGTQVTVSS	high polyreactivity
QVQLVESGGGLVQAGGSLRLSCAASGRTFPFYAMGWYRQAPGKERELVADITSSGGSTYYADSVKGRFTISRDNAKNTVYLQMNSLKPEDTAVYFCNSFRGAQGSDAYDWGQGTQVTVSS	low polyreactivity
QVQLVESGGGLVQAGGSLRLSCAASGPTFDYYAMGWYRQAPGKERELVAAISYSGGNSYYADSVKGRFTISRDNAKNTVYLQMNSLKPEDTAVYYWAANPAARDGRKTGYFCGQGTQVTVSS	high polyreactivity
QVQLVESGGGLVQAGGSLRLSCAASGSIFPSYAMGWFRQAPRKERELVAAISRSAGSTYYADSVKGRFTISRDNAKNTVYLQMNSLKPEDTAVYYCAADGYSSRYRFDYWGQGTQVTVSS	low polyreactivity
QVQLVESGGGLVQAGGSLRLSSAGSGRIFGYYAMGGYRQAPGTETELVAAISSNGGSTYYADSVKGRFTISRDNANNTVYLQMNSLQPEDTAVYYCKVYFYSRHYFYRGDYWGQGTQVTVSS	high polyreactivity
QVQLVESGGGLVQAGGSLRLSCAASGFTLYWNAMGWYRPAPGTERELVAGITNGGDTYYADSVKGRFTISRDNAKNTVYLQMNSLKPEDTAVYYCNVDPVYYRFHSSLSVIPGYDYWGQGTQVTVSS	low polyreactivity
QVQLVESGGGLVQAGGSLRLSCAASGRIFVRNAMGWYRQAPGKERELVADITNGGSTNYADSVKGRFTISRDNAKNTVYLQMNSLKPEDTAVYYCAADTLGVYDGDYWGQGTQVTVSS	low polyreactivity
QVQLVESGGGLVQAGGSLRLSCAASGSNFGVNAMGGYRQAPGKERELVAAITSGGGTYYTDSVKGRFTISRDNAKKTVYLQKNSLKPEATAVYYCMARVRGKQLVGRYDYWGQGTQVTVSS	high polyreactivity
QVQLVESGGGLVQAGGSLRLSCAASGYIFRGYVMGWYRQAPGKERELVAAITSRGDSTYYADSVKGRFTISRDNAKNTVYLQMNSLKPEDTAVYYCNAVHYYVEYDYWGQGTQVTVSS	high polyreactivity
QVQLVESGGGLVQAGGSLRLSCAASGLTFSGNTMGWYRQAPGKVRELVAAISSDGSTNYADSVKGRFTISRDNAKNTVYLQMNSLKPEDTAVYYCNARVRYYFAFWRDYWGQGTQVTVSS	low polyreactivity
QVQLVESGGGLVQAGGSLRLSCAASGFTFVVNAMGWYRQAPGKERELVATIRSNGGSTYYADSVKGRFTISRDNAKNTVYLQMNSLKPEDTAVYYCNTDRKHQSGRESAEMDYWGQGTQVTVSS	low polyreactivity
QVQLVESGGGLVQAGGSLRLSWAASGSTFIGYAMGWYRQAPGKERELVAAISWSGGLTYYADSVKGRFTFSRDNAKNTVYLQMNSLKPEDTAVYYCNTVPYGISVQFNYWGQGTQVTVSS	high polyreactivity
QVQLVESGGGLVQAGGSLRLTCAASGSTFIRNTMGWYRQAPGKERELVAAISRSGVRTYYADSVKGRFTISRDNAKNTVYLQMNSLKPEDTAVYYCNVLRYRLWGQGTQVTVSS	high polyreactivity
QVQLVESGGGLVQAGGSLRLSCAASGRIFIKYAMGWYRQAPGKERELVAAISQSGGSTYYADSVKGRFTISRDNAKNTVYLQMNSLKPEDTAVYYCAVRLYYSIRYYYWGQGTQVTVSS	high polyreactivity

Sequence	polyreactivity (PSR sort gate)
QVQLVESGGGLVQAGGSLRLSCAASGSTFRVNGMGWYRQAPGKERELVAVISWSGGSTYYADSVKGRFTISRDNAKNSVYLQMNSLKPEDTAVYYCAAKVKAGAGYHYDYYWGQGTQVTVSS	high polyreactivity
QVQLVESAGGLVQAGGSLRLSCAASGRIFYRYAMAWYRQAPGKERELVAAITQSGGSTFYADSVKGRFTISRDNAKNTVYLQMNSLKPEDTAVYYCNAYIPSLRGDYWGQGTQVTVSS	high polyreactivity
QVQHVESGGGLVQAGGSLRLSCAASGRISLSNAMGWYRQAPGKEREFVAAITKRSDRTYYADSVKGRFTISRDNAKNTVYLQMNSLKPEDTAVYYCAAKPLFGTRDDYWGLGTQVTVSS	low polyreactivity
QVQLVESGGGLVQAGGSLRLSCAASGSNFPYNAMGWYRQAPGKERELVAAITGRGGSTYYADSVKGRFTISRDNAKNTVYLHMNSLKPEDTAVYYCAAVTRNQGYYRYYYWGQGTQVTVSS	high polyreactivity
QVQLVESGGGLVQAGGSLRLSCAASGSIIFVNAMGWYRQAPGKERELVADISSGGSTNYADSVKGRFTISRDNAKNTVYLLMNSLKPEDTAVYYCNTDEPPIYERFPYDYWGQGTQVNVSS	low polyreactivity
QVQLVESGGGLVQAGGSLRLSCAASGRIFGQYAMGWYRQAPGKERELVAAITYSTGSTSYADSVKGRFTISRDNAKNTVYLQMNSLKPEDTAVYYCAAGGGRWYYPKRGSPYGFYYWGLGTQVTVSS	high polyreactivity
QVQLVESGAGLVQAGGSLRLSCAASGRTIGVYAMGWYRQAPGKERELVAAISWSGGTTYYADSVKGRFTISRDNAKNTVYLQMNSLKPEDTAVYYCAADSYTEVDYWGQGTQVTVSS	low polyreactivity
QVQLVESGGGLVQAGGSLRLSCAASGRIFRYNTMGWYRQAPGKERELVAAITYRGGSTYYADSVKGRFTISRDNAKNTVYLQMNSLKPEDTAVYYCAASPARYWYGGKEYDYWGQGTQVTVSS	high polyreactivity
QVQLVESGGGLVQAGGSLRLSCAASGGIFSYNAMGWYRQAPGKERELVAAITSSGSTYYADSVKGRFTISRDNAKNTVYLQMNSLKPEDTAVYYCNAVKRNSWIRGYWGQGTQVTVSS	low polyreactivity
QVQLVESGGGLVQAGGSLRLSCAASGRTFYRYAMGWYRQAPGKESELVAAISSSGGSTYYADSVKGRFTISRDNAKNTVYFQMNSLKPEDTAVYDCADQYFLFTTPYRYAPRMGYWGQGTQVTLSS	high polyreactivity
QVQLVESGGGLVQAGGSLRLSCAASGFTFKYNAMGWNRQAPGKERELVASISSGSTNYADSVKGRFTISRDNAKNTVYLQMNSLKPEDTAVYYCAASVSRGKRVRYGYLFKMDYWGQGTLVTVSS	low polyreactivity
QVQLVESGGGLVQAGGSLRLTCAASGNTFYQYAMGWYRQATGKERELVAAISSSGGSTYYADSVKGRFTISRDNAKNTVYLQMNSLKPEDTAVYYCATDKWYGYYYWGQGTQVTVSS	low polyreactivity
QVQLVESGGGLVQAGGSLRLSCAASGRIFFYNTKGWYRQAPGKERELVAVISSSDGSTYADSVKGRFTISRDNAKNTVYLQMNSLKPEDTAVYYCNAGWTRYVPYVRMDYWGHGTQVTVSS	high polyreactivity
QVQHVESGGGLVQAGGSLRLSCAASGIIFGGNAMGWYRQAPGKERELVAGISGSGASTYYADSVKGRFTISRDNAKNTVYLQMNSLKPEDTAVYYCAADGYPGDDYWGQGTQVTVSS	high polyreactivity
QVQLVESGGGLVQAGGSLRLSCAASGLIFIKYTMGWYRQAPGKERELVAVISGSGGSTYYADSVKGRFTISRDNAKNTVYLQMNSLKPEDTAVYYCAARSYALGYGGGYWGQGTQVTVSS	high polyreactivity
QVQLVESGGGLVQAGGSLRLSCAASGFIFDDNAMGWYRQAPGKERELVAAITSGGGTTYYADSVKGRFTISRDTAKNTVYLQMNSLKPEDTAVYYCNAVPSQHDEFDYWGQGTQVTVSS	low polyreactivity
QVHHVDSGGGLVQAGGTLRLSIPASGRTFQYYTMGWYRQPPGKERELVAAIRRGGSTYYADSVKGRFSISRDNAKNTVYLQLNILKPEDTAVYYCADLYAYSLTARGMEYWGQGTQVTVSS	high polyreactivity
QVQLVESGGGLVQAGGSLRLSCAASGFIFEYNTMGWYIQAPGKERELVAAISFIGGRTYYADSVKRRFTLSRDNAKNTVYLQMNSLKPVDTAVNYCNKRYGGYYSGARRVLYYYWGQGTQVTVSS	high polyreactivity
QVQLVESAGGLVQAGGSLRLSCAASGAIFGGYAMGWYRQAPGKERELVAAISSSGGSTYFADSVKGRFTISRDNEKNTVYLQMNSLKPEDTAVYYCAAKYQRRYYYWGQGTQVTVSS	high polyreactivity
QVQHVESGGGLVQAGGSLRLSCAASGFIFSTNAMGRYRQAPGKERELVATIRSGGSTNYADSVKGRFTISRDNAKYTVYLQMNSLKPEDTAVYYCNVDDTSWTTSGGRFGQVEYDYWGQGTQVTVSS	low polyreactivity
QVQLGESGGGLVQAGGSLRLRCAASGYILWNAMGWYRQAPGKERELVAAIRFRGGSTSYADSVKGRFTISRDNAKNTVYLQMNSLKPEDTAVYYCNARWWVIRPYQRHDYWGQGTQVTVSS	low polyreactivity
